The target of experiment [1] is RSV fusion glycoprotein (RSV F) on RSV-A2 virus (respiratory syncytial virus, UniProt P03420 26-574). Nature of the experiment: cell-based or functional assay.
Experiment [2] has as its target RSV prefusion F (preF), DS-Cav1 (respiratory syncytial virus, UniProt P03420 26-513). Nature of the experiment: BLI, IgG on sensor, 100 nM antigen. In general terms: In BLI a coated tip is dipped into the sample, and binding shifts an interference pattern.
Experiment [3] has as its target RSV postfusion F (postF), F deltaFP (respiratory syncytial virus, UniProt P03420 26-513). Nature of the experiment: BLI, IgG on sensor, 100 nM antigen.

B1: ADI-41374 (antibody, V domains shown)
VH: QVQLVQSGAEVKKPGSSVKVSCKASGGTFSNHAIDWVRQAPGQGLEWMGRIIPMVGLATYTRKFQGRVTISVDKSTSTAYMELSSLISDDTAVYYCARRTPEMAWGYWGQGTTVTVSS
VL: DIVMTQTPSSLSASVGDRVTITCQASQDIRYYVNWYQQKPGKAPKLLIYDASTLETGVPSRFSGRGSGTDFTLIISSLQPEDIATYYCQQYGDLPTFGQGTRLEIK
notes: IgG1; also called Ab 671
Consider B1, for which the “Neutralization IC50 (RSV subtype A)” value in experiment [1] was greater than 25 µg/mL. In addition, the dissociation constant Kd (in general, a measure of binding affinity in units of concentration) in experiment [2] is 1.39 nM; in experiment [3] it was 0.369 nM.

B2: ADI-41371 (antibody, V domains shown)
VH: QVQLQESGPRLVKPSQTLSLTCTVSGGSITTGEHYWSWIRQSPGRGLEWIGYISYSGSTYYNPSLKSRVTISVDTSKTRISLNLRSVTAADSAVYYCARDQEDSDYIWGSSRVFDIWGQGTMVTVSS
VL: ETTLTQSPGTLSLSPGERATLSCRASQNVGNNYLAWYQQKPGQAPRVLIQDASTRATGIPDRFSGSGSGTDFTLTISRLEPEDFAVYHCQQYGSAPWTFGQGTKVEIK
notes: IgG1; also called Ab 668
Consider B2, for which the “Neutralization IC50 (RSV subtype A)” value in experiment [1] was greater than 25 µg/mL. The results for the Kd in experiment [2] and in experiment [3] were 2.96 nM and 0.543 nM, respectively.

B3: ADI-41369 (antibody, V domains shown)
VH: EVQLVQSGGGVVQPGRSLRLSCAASGFTFSSYGMHWVRQAPGKGLEWVAVISHDGNNKYYGDSVKGRFTISRDNSKNTLHLQMNSLRGDDTAVYYCGKDPLKGDCSGGSCYQRIDYWGQGTLVTVSS
VL: NFMLTQPHSVSESPGKTVTISCTGSSGRIASNYVQWYQQRPGSAPATVIYDDNQRPSGVPDRFSGSIDSSSNSASLTISGLKTEDEADYYCQSYDRSNHVIFGGGTKLTVL
notes: IgG1; also called Ab 666
On to B3, for which the “Neutralization IC50 (RSV subtype A)” value in experiment [1] is greater than 25 µg/mL. The figures for the Kd in experiment [2] and in experiment [3] were 0.685 nM and 0.308 nM, respectively.

B4: ADI-41373 (antibody, V domains shown)
VH: QVTLKESGGGLVKPGGSLRLSCAASGFTFSDYFMTWIRQAPGKGLEWVSYISSNSGYTKYAEDVKGRFSISRDNAKKTLFLQLNSLSAEDTAVYYCARVEFSSGDVPSLFDLWGQGTLVTVSS
VL: QSVLTQPPSVSGAPGQRVTISCTGSSSNIGAGYHVHWYQQLPGTAPKVLIHGNNNRPSGVPDRFSGSRSGTSASLAITGLQAEDEADYYCQSYDFSLSGWVFGGGTKLTVL
notes: IgG1; also called Ab 670
Regarding B4, the “Neutralization IC50 (RSV subtype A)” value in experiment [1] was greater than 25 µg/mL. Also, the figures for the Kd in experiment [2] and in experiment [3] were 3.71 nM and 1.18 nM, respectively.

B5: ADI-41372 (antibody, V domains shown)
VH: QVQLVQSGAEVKKPGSSVKVSCKASGGISSSYAISWVRQAPGQGLEWMGGIIPIFGTTNYAQKFQGRVTITADKSTSTVYMELSSLRSEDSAVYFCARAYCSGGTCYGGADYWGQGTLVTVSS
VL: SYELTQPPSVSVSPGQTARITCSGDVLPKQYAYWYQQKLGQAPLLVMYKDTERPSGIPERFSGSSSVTAVTLTISGVQAEDEADYYCQSADSTQELFGGGTKLTVL
notes: IgG1; also called Ab 669
With B5, in experiment [1], the “Neutralization IC50 (RSV subtype A)” value was greater than 25 µg/mL. Besides, the Kd in experiment [2] came out at 2.48 nM; in experiment [3], 0.425 nM.

B6: ADI-41370 (antibody, V domains shown)
VH: EVQLVESGGGLVKPGGSLRLSCAASGFTFSGFSMNWVRQAPGKGLEWVSSISSTSRYIYYADSVQGRFTISRDNAKNSLYLQMNSLRAEDTAVYYCARDPGGSASFVPYYYGMDVWGQGATVTVSS
VL: SYELIQPPSVSVSPGQTARITCSGDALPNQYVYWYQKKPGQAPVLVIYKDTEGPLGIPERFSGSSSGTTVTLTISGVQAEDEADYYCQSADSSGTYPYVVFGGGTKLTVL
notes: IgG1; also called Ab 667
Regarding B6, the “Neutralization IC50 (RSV subtype A)” value in experiment [1] was greater than 25 µg/mL. Besides, the Kd turned out to be 5.59 nM in experiment [2] and 1.64 nM in experiment [3].

B7: ADI-41368 (antibody, V domains shown)
VH: EVQLVESGGGVVQPGRSLRLSCAASGFIFRNYGMHWVRQAPGKGLEWVAGTSFEGRNKDYGHSVKGRFTISRDNSKDTLYLQMNSLRPEDTAVYSCAKGSSLQWSHLDWYFDLWGRGTLVTVSS
VL: DIVMTQSPSTLSASVGDRVTITCRASQSFSSWLAWYQQKPGKAPNLLIYDASTLESGVPSRFSGSGSGTEFTLTISSLQPDDFATYYCQQERTFGQGTKVEIK
notes: IgG1; also called Ab 665
As for B7, the “Neutralization IC50 (RSV subtype A)” value in experiment [1] is greater than 25 µg/mL. The values for the Kd in experiment [2] and in experiment [3] were 3.08 nM and 0.878 nM, respectively.

Values taken from patent US20260258115A1 (MAPP BIOPHARMACEUTICAL, published 2026).
